From patent publication US20150359911

Biological target: Integrin alpha-v beta-3 (UniProt P06756+P05106)
Experiment: filter
Conditions: BzdU replaces dT in the extended strand, HEPES, NaCl, KCl, MgCl2 buffer, 37 C

Integrin alpha-v beta-3, sequence (P06756 31-992, chain 1 of 2): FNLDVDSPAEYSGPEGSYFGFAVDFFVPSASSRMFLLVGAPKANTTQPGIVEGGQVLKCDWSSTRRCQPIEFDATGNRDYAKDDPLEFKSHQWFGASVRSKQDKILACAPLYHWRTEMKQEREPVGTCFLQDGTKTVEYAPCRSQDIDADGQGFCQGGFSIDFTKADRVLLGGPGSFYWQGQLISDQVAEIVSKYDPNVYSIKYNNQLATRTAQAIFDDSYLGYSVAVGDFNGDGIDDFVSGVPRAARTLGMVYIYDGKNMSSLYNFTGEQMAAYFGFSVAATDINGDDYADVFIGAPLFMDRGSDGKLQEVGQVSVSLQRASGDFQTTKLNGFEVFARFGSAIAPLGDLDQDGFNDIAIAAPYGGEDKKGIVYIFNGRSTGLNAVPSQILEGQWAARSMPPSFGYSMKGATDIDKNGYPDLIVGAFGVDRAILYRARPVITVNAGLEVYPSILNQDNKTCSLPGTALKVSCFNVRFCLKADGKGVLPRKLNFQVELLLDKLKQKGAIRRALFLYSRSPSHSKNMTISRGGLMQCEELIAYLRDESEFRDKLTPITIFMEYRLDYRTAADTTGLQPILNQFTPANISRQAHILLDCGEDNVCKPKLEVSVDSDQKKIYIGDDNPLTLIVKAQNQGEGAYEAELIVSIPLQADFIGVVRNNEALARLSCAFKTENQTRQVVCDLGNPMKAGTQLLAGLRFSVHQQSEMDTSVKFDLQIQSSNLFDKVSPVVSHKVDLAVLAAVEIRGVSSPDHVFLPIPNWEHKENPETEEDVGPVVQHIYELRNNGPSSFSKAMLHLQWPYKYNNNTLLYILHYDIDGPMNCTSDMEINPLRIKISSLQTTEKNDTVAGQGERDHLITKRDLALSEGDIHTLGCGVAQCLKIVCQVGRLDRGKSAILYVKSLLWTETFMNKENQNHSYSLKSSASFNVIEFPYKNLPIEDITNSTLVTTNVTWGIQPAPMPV
Integrin alpha-v beta-3, sequence (P05106 27-718, chain 2 of 2): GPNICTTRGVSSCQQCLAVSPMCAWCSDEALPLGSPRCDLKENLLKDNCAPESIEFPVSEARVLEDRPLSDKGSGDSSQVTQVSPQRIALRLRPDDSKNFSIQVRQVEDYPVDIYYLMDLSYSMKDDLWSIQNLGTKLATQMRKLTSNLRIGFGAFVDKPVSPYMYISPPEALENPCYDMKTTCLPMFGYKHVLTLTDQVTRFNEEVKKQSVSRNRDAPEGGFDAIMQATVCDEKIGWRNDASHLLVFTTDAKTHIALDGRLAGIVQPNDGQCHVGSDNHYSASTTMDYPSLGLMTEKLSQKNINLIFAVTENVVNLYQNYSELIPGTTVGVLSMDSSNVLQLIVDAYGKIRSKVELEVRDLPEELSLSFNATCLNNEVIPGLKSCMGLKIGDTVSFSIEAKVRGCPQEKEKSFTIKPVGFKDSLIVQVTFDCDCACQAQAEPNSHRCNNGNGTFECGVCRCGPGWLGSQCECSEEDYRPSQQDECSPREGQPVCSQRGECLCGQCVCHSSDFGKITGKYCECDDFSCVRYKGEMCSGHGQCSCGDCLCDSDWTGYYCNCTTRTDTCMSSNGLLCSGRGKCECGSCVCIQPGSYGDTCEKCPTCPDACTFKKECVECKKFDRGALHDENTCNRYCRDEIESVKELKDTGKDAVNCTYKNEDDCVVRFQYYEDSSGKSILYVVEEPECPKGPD

| Sequence | Kd (n = random N40 [n positions 19 = modified dU], Bmax 3.23E-11, essentially no binding) [µM] | Kd (n = selected N40 region [n positions 19 = modified dU], Bmax 0.45) [µM] |
| --- | --- | --- |
| TCAGCCGCCAGCCAGTTCTGACCAGAGCACCACAGAG [Starting benzyl-dU random library] | 6.5 | – |
| TCAGCCGCCAGCCAGTTCTGACCAGAGCACCACAGAG [Round 8 SELEX pool] | – | 0.0433 |
